The target in experiment [1] is CRT4LP (PASylated CRT-targeted L-ASNase: CRT4 monobody - L-ASNase - PAS200 tag - His6) (E. coli).
The target of experiment [2] is CRT3LP (PASylated CRT-targeted L-ASNase: CRT3 monobody - L-ASNase - PAS200 tag - His6) (E. coli).

The term Kd denotes the concentration at which binding is half-saturated.

B1: recombinant calreticulin protein (rCRT) (other)
chain: EPAVYFKEQFLDGDGWTSRWIESKHKSDFGKFVLSSGKFYGDEEKDKGLQTSQDARFYALSASFEPFSNKGQTLVVQFTVKHEQNIDCGGGYVKLFPNSLDQTDMHGDSEYNIMFGPDICGPGTKKVHVIFNYKGKNVLINKDIRCKDDEFTHLYTLIVRPDNTYEVKIDNSQVESGSLEDDWDFLPPKKIKDPDASKPEDWDERAKIDDPTDSKPEDWDKPEHIPDPDAKKPEDWDEEMDGEWEPPVIQNPEYKGEWKPRQIDNPDYKGTWIHPEIDNPEYSPDPSIYAYDNFGVLGLDLWQVKSGTIFDNFLITNDEAYAEEFGNETWGVTKAAEKQMKDKQDEEQRLKEEEEDKKRKEEEEAEDKEDDEDKDEDEEDEEDKEEDEEEDVPGQAKDEL
As to B1, the Kd in experiment [1] amounted to 2.3 nM; in experiment [2], 2.07 nM.

(Values after US20250376507A1 (INDUSTRY FOUNDATION OF CHONNAM NATIONAL UNIVERSITY, published 2025).)
